Assay results: the nanobody polyreactivity screen of Harvey et al. (2022)

assay: yeast display, Sf9 membrane polyspecificity reagent, FACS + sequencing; frameworks hold sequencing errors
In short: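 A nanobody's polyreactivity label depends on the gate it was sorted from. Yeast display cells were stained with 10% biotinylated, detergent-solubilized Sf9 membrane reagent for 1 hour at 4 °C, enriched on streptavidin microbeads and sorted by FACS. The low and high (top ~1%) gates were set on anti-HA fluorescence for expression and streptavidin fluorescence for reagent binding.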

Sequence | polyreactivity (PSR sort gate)
QVQLVESGGGLVQAGGSLRLSCAASGSTLYYNAMGWFRQAPGKERELVARISRSGGSTYADSVKGRFTISRDNAKNTVYLQMNMLKRDDTAVYYCNADAYGTPEFTSYAVRYDYWGQGTQVTVSS | low polyreactivity
QVQLVESGGGLVQAGGSLRLSCAASGSTLYYNAMGWYRKAPGKERELVADITSGGSTSYADSVKGRFTISRDNAKNTVYLQMNSLKPEDTAVYYCAAVFYRRFDYWGQGTQVTVSS | low polyreactivity
QVQLVESGGGLVQAGGSLRLSCAASGSTLYYNAMGWYRQAPGKERELVAAITSGGSTSYADSVKGRFTISRDNAKNTVYLQMNRLKPDDTAVYYCAAVFYRRFDYWGQGTQVTVSS | low polyreactivity
QVQLVESGGGLVQAGGSLRLSCAASGSTQRFYAMGWYRQAPGKERELVAVISRGGSTYFADSVKGRFTISRDNAKNTVYLQMNSLKPEDTAVYYCAAYHRTSAARPIYDYWGQGTQVTVSS | low polyreactivity
QVQLVESGGGLVQAGGSLRLSCAASGSTQRGYARGWYRQAPGKERELVASISRRGGSTYYADSVKGRFTISRDNAKNTVYLQMNSLKPEDTAVDYCAATGRRGYGYGYWGQGTQVTVSS | high polyreactivity
QVQLVESGGGLVQAGGSLRLSCAASGSTRRYFKGWYRQAPGKERELVAVISRGGSTYYADSVKGRFTISGDNAKNTVYLQMNSLKPEDTAVYYCNVQPVIPRGGDYWGQGTQVTVSS | high polyreactivity
QVQLVESGGGLVQAGGSLRLSCAASGSTRYNAMGWYRQAPGKERELVASIRGNAGSTYYADSVKGRFTISRDNAKNTVYLQMNSLKPEDTAVYYCNARVLRYSCFHYDYCGQGTQVTVSS | high polyreactivity
QVQLVESGGGLVQAGGSLRLSCAASGSTSDINAMGWYRQAPGKERELVAAISSSGGRTYYADSVKGRFTISRDNAKNTVYLQMNSLKPEDTAVYYCAADTYTSAQHEKYDYWGQGTQVTVSS | low polyreactivity
QVQLVESGGGLVQAGGSLRLSCAASGSTSDYYAMGWYRQAPGKERELVAAISWSGGSTYYADSVKGRFTISRDNAKNTVYLQMISLKPEDNAVYYCAAQHYNFSGPFEYWGQGTQVTVSS | low polyreactivity
QVQLVESGGGLVQAGGSLRLSCAASGSTSERYDMGWYRQAPGKERELVATITWSGGDTHYADSVKGRFTISRDNAKNTVYLQMNSLKPVDTAVYYCAAEYTFVWGLWYDYWGQGTQVTVSS | low polyreactivity
QVQLVESGGGLVQAGGSLRLSCAASGSTSFTYMGWYRQAPGTEREVVAAIDESGGSTYYADSVKGRFTISRDNAKNTVYLQMNTLKPEDTAGYYCTRRYGRSYRWGNGYWGQGTQVTVSA | low polyreactivity
QVQLVESGGGLVQAGGSLRLSCAASGSTSGIYAMGWYRQAHGKERELVAAIDTSGGSTYADSVKGRFTISRDNAKNTVYLQMNSLKPEETAVYYCAKPFSSNSWSHGYWGQGTQVTVSS | low polyreactivity
QVQLVESGGGLVQAGGSLRLSCAASGSTSHYNAMGWYRQAPGKERELVASITWSGGSTYYADSVKGRFTISRDNAKNTVYLQMYSLKPEDTAVYYCNAQERRVRDYDYWGQGTQVTVSS | low polyreactivity
QVQLVESGGGLVQAGGSLRLSCAASGSTSLFYAMGWYRQAPGKERELVAGITNTARTYADSVKGRFTISRDNAKNTVYLQMKSLKPEDTAVYYCATGYNRWRPTFPFYYWGLGTQVTVSS | high polyreactivity
QVQLVESGGGLVQAGGSLRLSCAASGSTSLVNAMGWYRQAPGKERELVAAITRGGNTYYADSVKGRFTISRDNAKNTVYLQMNSLKPEDTAVYYCNVGQDALYRLEYWGQGTQVTVSS | low polyreactivity
QVQLVESGGGLVQAGGSLRLSCAASGSTSLVYAMGWYRQAPGKERELVAAISWSGGSTYYADSVKGRFTISRDNAKNTVYLQMKSLKPEDTAVYYCAAEYYGYWEYDYWGQGTQVTVSS | high polyreactivity
QVQLVESGGGLVQAGGSLRLSCAASGSTSPRNAMGWYRQAPGKERELVAAISSGGRTNYAVSVKGRFTISRDNAKNTVYLQMNSLKPEDTAVYYCAAAVQSTYWGQGTQVTVSS | low polyreactivity
QVQLVESGGGLVQAGGSLRLSCAASGSTSPVYAMGWYRQAPGKERELVAAISSSGSRTYYADSVKGRFTISRDNAKNTVYLQMNCLKPEDSAVYYCAADWWAWRAYYYWGQGTQVTVSS | high polyreactivity
QVQLVESGGGLVQAGGSLRLSCAASGSTSQPYAMGWYRQAPGKERELVASITNGGITYYADSVKGRFTISRDNAKNTVYLQMNSLKPEDTAVYYCNADNVFEGYDRRSARASYRYYYWGQGTQVTVSS | low polyreactivity
QVQLVESGGGLVQAGGSLRLSCAASGSTSQSNAMGRYRQAPGKERELVAAISWSGTSTYYADSVKGRFTISRDNAKNTVYLQMNSLKPEDTAVYYCAADYIFDYDYWGQGTQVTVSS | low polyreactivity
QVQLVESGGGLVQAGGSLRLSCAASGSTSRKYTMGWYRQAPGKERELVATISWSGGSTYYADSVKGRFTISRDNAKNTVYLQMNSLKPEDTAVYYCAAATKVRNLGSFESPGPEVDYWGQGTQVTVSS | high polyreactivity
QVQLVESGGGLVQAGGSLRLSCAASGSTSRTYAMGWYRQAPGQEMELVAAISSSGGRTYYADSVKGRFTISRDTAKNTVYLEMNSLKPEDTAVYYCNARTYSYRGYNYWGQGTQVTVSS | high polyreactivity

Sequence | polyreactivity (PSR sort gate)
QVQLVESGGGLVQAGGSLRLSCAASGSTSRYAMGWYRQAPGKERELVAAITRSGGTTYYADSVKGRYTISRDNAKNTVYLQMNSLKPEDTAVYYCATSDRQVKYDYWGQGTQVTVSS | low polyreactivity
QVQLVESGGGLVQAGGSLRLSCAASGSTSSNNAMGWYRQAPGKEREFVADISSRGGSTYYADSVKGRFTISRDNAKNTVYLQMNSLKPEDTAVYYCARTRFWLRYRLFDYWGQGTHVTVSS | low polyreactivity
QVQLVESGGGLVQAGGSLRLSCAASGSTSSVYAIGWYRQAPGKEREFVASITRRTGITFYADSVKGRFTISRDHAKNTVYLQMNSLKPEDTAVYYCAADFSGSVDYWGQGTQVTVSS | high polyreactivity
QVQLVESGGGLVQAGGSLRLSCAASGSTSTTYTMGWYRQAPGKERELVAAISYSGGSTYYADSVKGRFTISRDNAKHTVYLQMNSLKPEDTAVYYCAAQSFVGWREYESWGQGTQVTVSS | high polyreactivity
QVQLVESGGGLVQAGGSLRLSCAASGSTSTYYAMGWYRQAPGKERELVAAITLGAGRTYADSVKGRFTISRDNAKNTVYLQMNSLKPEDTAVYYCAADSHIDHGKWAYDYWGQGTQVTVSS | low polyreactivity
QVQLVESGGGLVQAGGSLRLSCAASGSTSVINAMGGNRQAPGKERELVAGISGSGGSTYYADSVKGRFTISRDNAKNTVYLLMNSLKPEDTAVYYCAKRFYRPVPGGYYWGQGTQVTVSS | high polyreactivity
QVQLVESGGGLVQAGGSLRLSCAASGSTSVVNAMGWYRQAPGKERELVAAISTGGASTYYADSVKGRFTISRDNAKNTVYLQMNSLNPEDTAVYYCAADLGYEYDYWGQGTQVTVSS | high polyreactivity
QVQLVESGGGLVQAGGSLRLSCAASGSTSVYYAMGWYRQTPGKERELVAAINWNGGRTYYADSVKGRFTISRDNAKNTVYLQMNSLKPEDTAVYYCATDSGDGEGDYWGQGTQVTVSS | low polyreactivity
QVQLVESGGGLVQAGGSLRLSCAASGSTSWRNTMGWYRQAPGKERELVAAIRNVGSTYYADSVKGLFTISRDNAKNTVYLQMNSLKPEDTAVYYCNARWRFLYDYWGQGTQVTVSS | high polyreactivity
QVQLVESGGGLVQAGGSLRLSCAASGSTSYRYAMGWYRQAPGKQRELVAGITRSGGSTYYADSVKGRFTMSRDNAKNSVYLQMNSLKPEDTAVYYCAAYYSRQYVGYGYWGQGTQVTVSS | high polyreactivity
QVQLVESGGGLVQAGGSLRLSCAASGSTSYWYAMGWYRQAPGKERELVAAISSDDSTNYADSVKGRFTISRDNAKNTVYLQMNSLKPEDTAVYYFNREHYLIRYDYWGQGTQVTVSS | low polyreactivity
QVQLVESGGGLVQAGGSLRLSCAASGSTTYYAMGWYRQAPGKERELVAAISYSGGSTFYADSVKGRFRISRDNAKNTVYLQMNSLKPEDTAVYYCAADLGFPFDYWGQGTKVTVSS | low polyreactivity
QVQLVESGGGLVQAGGSLRLSCAASGSTVESNVMGWYRQAPGKERELVAAISYSGGSTYIADSVKGRFTISRDNAKNTVYLQLNSLNPEDTAVLYSNALTSGYLYTFHRLWYPMYYWGQGTQGTVSS | high polyreactivity
QVQLVESGGGLVQAGGSLRLSCAASGSTVFGNAMGWYRQAPGKERELVAAITSGGSTNYADSVKGRFTISRDNAKNTVYLQMNSLKPEDTAVYYCAKPSRWGWTGFYAYDYWGQGTQVTVSS | low polyreactivity
QVQLVESGGGLVQAGGSLRLSCAASGSTVGLYTMGSYRHAPGKEMELFAAISWSDGSTYYEDSVKGRFTISRDNAKNTVYLQMISLKPEDTAVYYCAAEFLYQQSSWEFDYWGQGTQVTVSS | low polyreactivity
QVQLVESGGGLVQAGGSLRLSCAASGSTVRRNTMGWYRQAPGKERELVAGISSSGGSTYYADSVKGRFTISRDNAKNTVYLQINSLKPEDTAVYYCAARFYVSYVGYNYWGQGTQVTVSS | high polyreactivity
QVQLVESGGGLVQAGGSLRLSCAASGSTVRVYAMGWYRQAPGKERELVARISITGGTTRYADSVKGRFTISRDNAKNTVYLQMNSLKPEDTAVYYCNADYDWYYWYLYKYPFDYWRQGTQVTVSS | low polyreactivity
QVQLVESGGGLVQAGGSLRLSCAASGSTVTSNAMGWSRQAPGKERELVAAISSGGSTYYADSVKGRFTISRDNAKNTVYLQMNSLKPEDTAVYYCAAEWHYIYAYDYWGQGTQVTVSS | low polyreactivity
QVQLVESGGGLVQAGGSLRLSCAASGSTVVYYAMGWYRQAPGKERELVAAITSGGSTNYADSVKGRFTISRDNAKITVYLQMNSLKPEDTAVYYCNAEPETTIDYWGQGTQVTVSS | low polyreactivity
QVQLVESGGGLVQAGGSLRLSCAASGSTVWKYVMGWYRQAPGKERELVAAISNSGVNTYYADSVKGRFTISRDNAKNTVYLQMNSLKTEDTAVYYCAADRGGYEYWGQGTQVTVSS | high polyreactivity
QVQLVESGGGLVQAGGSLRLSCAASGSTVYQYVMGRYRQAPGKVREFVAAITFSGSRTYYADSVKGRFTISRDNAKNTVYLQMNSLKPEDTAVYYCAVHSTSPRGKRYEYWGQGTQVTVSS | high polyreactivity
